Laboratory results as given in patent US20060199251.

T1: Ac-IEPD-pNA (N-acetyl-L-isoleucyl-L-glutamyl-L-prolyl-L-aspartyl-p-nitroaniline)
T1 chain: IEPD

B1: GrB-H6 C228F (activated human Granzyme B variant, Cys228 (chymotrypsinogen numbering) to Phe, C-terminal hexa-His tag) (protein)
chain: MGSIEPDIIGGHEAKPHSRPYMAYLMIWDQKSLKRCGGFLIQDDFVLTAAHCWGSSINVTLGAHNIKEQEPTQQFIPVKRPIPHPAYNPKNFSNDIMLLQLERKAKRTRAVQPLRLPSNKAQVKPGQTCSVAGWGQTAPLGKHSHTLQEVKMTVQEDRKCESDLRHYYDSTIELCVGDPEIKKTSFKGDSGGPLVCNKVAQGIVSYGRNNGMPPRAFTKVSSFVHWIKKTMKRYLNSHHHHHH
B2: purified bovine blood clotting factor Xa (protein)
chain: ANSFLEEVKQGNLERECLEEACSLEEAREVFEDAEQTDEFWSKYKDGDQCEGHPCLNQGHCKDGIGDYTCTCAEGFEGKNCEFSTREICSLDNGGCDQFCREERSEVRCSCAHGYVLGDDSKSCVSTERFPCGKFTQGRSRRWAIHTSEDALDASELEHYDPADLSPTESSLDLLGLNRTEPSAGEDGSQVVRIVGGRDCAEGECPWQALLVNEENEGFCGGTILNEFYVLTAAHCLHQAKRFTVRVGDRNTEQEEGNEMAHEVEMTVKHSRFVKETYDFDIAVLRLKTPIRFRRNVAPACLPEKDWAEATLMTQKTGIVSGFGRTHEKGRLSSTLKMLEVPYVDRSTCKLSSSFTITPNMFCAGYDTQPEDACQGDSGGPHVTRFKDTYFVTGIVSWGEGCARKGKFGVYTKVSNFLKWIDKIMKARAGAAGSRGHSEAPATWTVPPPLPL

Legend:
[1] = target: H6-TripUB IQAD↓SP
[2] = target: H6-TripUB IEPD↓SP
[3] = target: T1, Ac-IEPD-pNA …
[4] = target: H6-TripUB IEPD↓TQ
[5] = target: H6-TripUB IEPD↓EP
[6] = target: H6Ubi-IEPD-ApoA1
[7] = target: H6-TripUB IEPD↓IV
[8] = target: H6-TripUB IQAD↓SG
[9] = target: H6-TripUB IEPD↓EG
[10] = target: H6-IEGR-RAP
[11] = target: H6Ubi-IEGR-ApoA1

Chain of H6-IEGR-RAP (P30533 whole entry): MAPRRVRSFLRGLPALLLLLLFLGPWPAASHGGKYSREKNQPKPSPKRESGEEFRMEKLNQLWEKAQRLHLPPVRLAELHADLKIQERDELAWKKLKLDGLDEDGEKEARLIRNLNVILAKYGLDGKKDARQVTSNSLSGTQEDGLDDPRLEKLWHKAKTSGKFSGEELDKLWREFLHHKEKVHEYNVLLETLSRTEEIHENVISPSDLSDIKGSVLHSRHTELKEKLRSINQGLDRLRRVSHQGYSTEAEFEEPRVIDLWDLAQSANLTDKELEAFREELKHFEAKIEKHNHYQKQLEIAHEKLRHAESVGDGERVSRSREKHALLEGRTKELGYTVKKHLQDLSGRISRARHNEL

Protein	cleavage by immobilized enzyme, non-reducing SDS-PAGE, room temperature over night [1]	cleavage of fusion protein, SDS PAGE, 96 hours at 23° C., protease:fusion protein 1:500 [2]	fusion protein cleaved, SDS PAGE, 48 hours at 21° C., protease:fusion protein 1:500 [2]	KM (µM), colorimetric assay, Lineweaver-Burk plot, 100 mM HEPES pH 7.75, 20 nM enzyme [3] [µM]	kcat [3] [s⁻¹]	kcat/KM (10^4 s^-1M^-1) [3] [s^-1M^-1]	cleavage of fusion protein, SDS PAGE, 24 hours at 23° C., protease:fusion protein 1:500 [4]	fusion protein cleaved, SDS PAGE, 48 hours at 21° C., protease:fusion protein 1:500 [5]	fusion protein cleaved, SDS PAGE, 50 hours at 21° C., protease:fusion protein 1:500 [5]	fusion protein cleaved, SDS PAGE, 6 hours at 23° C., protease:substrate 1:1000 [6]	cleavage of fusion protein, SDS PAGE, 24 hours at 23° C., protease:fusion protein 1:500 [7]	cleavage by immobilized enzyme, non-reducing SDS-PAGE, room temperature over night [8]	cleavage of fusion protein, SDS PAGE, 6 hours, protease:fusion protein 1:500 [9]	time to complete cleavage, protease to substrate ratio 1:500 [9]	cleavage of fusion protein, SDS PAGE, ½ hour at 23° C., protease:fusion protein 1:1000 [10]	degradation of fusion protein, SDS PAGE, 27 hours at 23° C. [10]	fusion protein cleaved, SDS PAGE, 6 hours at 23° C., protease:substrate 1:1000 [11]	time to complete cleavage, 23° C., protease:substrate 1:1000 [11]
B1	For all twelve cleavage experiments the fusion proteins are cleaved to give a single product corresponding to TripUbi moiety from which the H6 fusion partner has been cleaved off	the cleavage is almost 100% complete after 96 hours	After 48 hours approximately 40% has been cleaved at 21 °C	27	4.85	180000	this is app. 100% completed after only 24 hours	after 48 hours at 21 °C approximately 35-40% has been cleaved	after 50 hours at 21 °C approximately 40% has been cleaved	The GrB substrate, H6Ubi-IEPD-ApoA1, is approximately 100% cleaved after only 6 hours incubation at 23 °C	This is also the case for the cleavage of H6-TripUB IEPD↓IV (app. 100% completed after only 24 hours)	For all twelve cleavage experiments the fusion proteins are cleaved to give a single product corresponding to TripUbi moiety from which the H6 fusion partner has been cleaved off	after only 6 hours the cleavage has been completed	it takes less than 5 hours for GrB-H6 C228F to complete the cleavage of H6-TripUbi IEPD↓EG				
B2															After only ½ hour almost all of the fusion protein had been cleaved to give the correct product for both incubations	all of the fusion protein had been degraded to give a variety of smaller fragments after 27 hours, and there is no correctly cleaved product left	only a small fraction of the FXa substrate, H6Ubi-IEGR-ApoA1, has been cleaved after 6 hours	FXa requires more than 48 hours to complete the cleavage of the FXa substrate
